From patent US20140004107A1

Target: human ST2 on human primary cells (human) (UniProt Q01638)
Experiment: cell-based or functional assay

Chain of human ST2 on human primary cells (human) (Q01638 19-556 A78X): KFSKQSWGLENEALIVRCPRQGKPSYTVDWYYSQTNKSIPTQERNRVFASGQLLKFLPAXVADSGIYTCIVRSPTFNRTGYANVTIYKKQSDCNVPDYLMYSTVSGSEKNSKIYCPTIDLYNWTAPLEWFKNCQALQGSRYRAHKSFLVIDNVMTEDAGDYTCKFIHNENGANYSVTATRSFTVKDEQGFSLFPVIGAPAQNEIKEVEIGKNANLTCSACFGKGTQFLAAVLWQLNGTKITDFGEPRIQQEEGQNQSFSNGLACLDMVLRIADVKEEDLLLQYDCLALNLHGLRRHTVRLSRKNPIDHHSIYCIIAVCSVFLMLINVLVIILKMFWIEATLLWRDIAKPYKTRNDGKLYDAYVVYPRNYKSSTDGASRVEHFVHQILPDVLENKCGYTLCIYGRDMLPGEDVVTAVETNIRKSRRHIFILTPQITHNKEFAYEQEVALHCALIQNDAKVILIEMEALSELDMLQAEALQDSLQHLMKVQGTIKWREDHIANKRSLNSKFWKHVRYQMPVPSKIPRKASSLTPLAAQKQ

IC50 of inhibition of IL-33-dependent IFN-γ response of human NK cells (IL-33 10 ng/mL plus IL-12): 0.385 µg/mL
Substance: 97203 (antibody)
